We go through one molecule from patent US20260242465A1 (CELSIUS THERAPEUTICS, published 2026).

Experiment [1] concerns the target T1, hFcγRIIIA176V (human, UniProt P08637 17-208).
T1 construct: Bought; also called FcγRIIIA (176V polymorphism); not shown: His tag
The experiment is described as follows: SPR (Biacore T200), single-cycle kinetics; replicate 1. The text has this: (§1) Human Fc receptors, FcγRI, FcγRII (both 167R and 167H polymorphisms), FcγRIIB, FcγRIIIA (both 176F and 176V polymorphisms) and FcγRIIIB were obtained from Sino Biological (Beijing, China). FcγR were captured on a CM5 sensor chip pre-coupled using a His capture kit (Cytiva, Uppsala, Sweden) using standard amine chemistry.
(§2) At the start of each cycle, His-tagged Fcγ receptors diluted in HBS-P+ (Cytiva, Uppsala, Sweden) were loaded to a specific RU level. A five point, three-fold dilution range of test antibody without regeneration between each concentration was used for each receptor tested. Antibodies were passed over the chip in increasing concentrations followed by a single dissociation step. Following dissociation, the chip was regenerated with two injections of glycine (pH 1.5).
(In general: Surface plasmon resonance follows binding to a sensor surface in real time, without labels.)

Experiment [2] has as its target T2, hFcγRIIA167R (human, UniProt P12318 34-218).
T2 construct: also called FcγRII (167R polymorphism); not shown: His tag
T2 sequence (looked up): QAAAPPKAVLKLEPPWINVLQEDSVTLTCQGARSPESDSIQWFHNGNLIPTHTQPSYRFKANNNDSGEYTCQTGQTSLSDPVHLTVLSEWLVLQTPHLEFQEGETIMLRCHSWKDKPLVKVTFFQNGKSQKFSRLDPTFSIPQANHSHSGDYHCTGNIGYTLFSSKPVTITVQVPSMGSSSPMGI
The description is as above.
Text: as §1, §2

In experiment [3] the target is T1, hFcγRIIIA176V. The experiment is described as follows: SPR (Biacore T200), single-cycle kinetics; replicate 2.
Text: as §1, §2

Experiment [4] has as its target T2, hFcγRIIA167R. Described as above.
Text: as §1, §2

For experiment [5], the target named is T3, human TREM2 expressed on HEK293 cells (human, UniProt Q9NZC2 19-230).
T3 construct: whole, on cells; Named member of the array of more than 6,000 human membrane proteins; also called TREM2 (membrane protein array)
T3 sequence (looked up): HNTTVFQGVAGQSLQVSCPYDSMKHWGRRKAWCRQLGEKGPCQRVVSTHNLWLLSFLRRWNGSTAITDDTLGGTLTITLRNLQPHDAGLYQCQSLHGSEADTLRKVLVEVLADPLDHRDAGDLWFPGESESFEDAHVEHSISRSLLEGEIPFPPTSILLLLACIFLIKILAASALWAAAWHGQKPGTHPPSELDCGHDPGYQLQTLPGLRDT
The experiment is described as follows: polyspecificity assay; flow cytometry on transfected HEK293 cells. From the text: Transient transfection was used to express an array of each of more than 6,000 human membrane proteins including TREM2 and other TREM family members on the surface of HEK293 cells. […] TMEM178A is an intracellular protein that localizes to the endoplasmic reticulum; see e.g., Decker et al., Proc. Natl. Acad. Sci., 112(51):15654-9 (2015).
(Flow cytometry measures light scatter and fluorescence of single cells or particles in a stream.)

In experiment [6] the target is T4, recombinant monovalent cynomolgus monkey TREM1-ECD (cynomolgus monkey).
T4 construct: whole entry named; also called cyno TREM1-ECD
T4 chain: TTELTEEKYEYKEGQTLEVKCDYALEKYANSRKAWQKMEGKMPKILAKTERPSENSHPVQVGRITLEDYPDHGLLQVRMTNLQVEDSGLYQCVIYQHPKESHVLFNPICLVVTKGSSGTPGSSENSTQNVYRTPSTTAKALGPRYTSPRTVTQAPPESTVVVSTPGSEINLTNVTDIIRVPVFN
The experiment is described as follows: BLI; antibody on AHC sensor, monovalent TREM1-ECD in solution. From the text:
(§3) Sensors were monitored to establish a baseline.
(§4) The coefficient of determination of the 1:1 model fit to the BLI sensorgrams is represented by the R\hat{ }2 value. Data for human and cynomolgus monkey represents averages across three replicates. Data for pig, dog, rabbit, rat, and mouse represents averages across two replicates.

In experiment [7] the target is T5, recombinant monovalent pig TREM1-ECD (pig (Sus scrofa), UniProt Q6TYI6 21-210).
T5 construct: whole entry named
T5 sequence: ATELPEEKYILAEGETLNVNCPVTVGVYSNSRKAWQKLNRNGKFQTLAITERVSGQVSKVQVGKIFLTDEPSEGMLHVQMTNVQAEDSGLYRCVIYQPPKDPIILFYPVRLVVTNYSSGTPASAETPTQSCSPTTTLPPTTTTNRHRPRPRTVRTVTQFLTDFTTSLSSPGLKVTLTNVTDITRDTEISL
Described as above.
Text: as §3, §4

The target in experiment [8] is T6, recombinant monovalent dog TREM1-ECD (dog (Canis familiaris)).
T6 construct: whole entry named
T6 chain: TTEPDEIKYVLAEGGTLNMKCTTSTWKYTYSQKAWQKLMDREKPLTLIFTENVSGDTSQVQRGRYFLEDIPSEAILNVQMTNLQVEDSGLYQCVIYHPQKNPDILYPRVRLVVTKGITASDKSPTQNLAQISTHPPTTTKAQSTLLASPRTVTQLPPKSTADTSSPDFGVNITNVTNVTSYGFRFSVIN
The experiment is described as above.
Text: as §3, §4

Experiment [9] concerns the target T7, recombinant monovalent rabbit TREM1-ECD (rabbit).
T7 construct: extracellular domain
The experiment is described as above.
Text: as §3, §4

The target of experiment [10] is T8, recombinant monovalent mouse TREM1-ECD (mouse, UniProt Q9JKE2 21-202).
T8 construct: whole entry named
T8 sequence: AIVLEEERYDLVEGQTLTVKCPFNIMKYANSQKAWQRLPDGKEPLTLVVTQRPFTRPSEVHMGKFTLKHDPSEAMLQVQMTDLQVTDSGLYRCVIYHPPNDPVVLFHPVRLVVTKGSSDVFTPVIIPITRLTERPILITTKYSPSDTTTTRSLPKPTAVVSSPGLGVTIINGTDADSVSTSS
The description is as above.
Text: as §3, §4

In a further experiment the target is T9, purified human C1q (human, UniProt P02745 23-245; P02746 28-253; P02747 29-245).
T9 construct: Purified from HyCult Biotech; also called complement protein C1q
The experiment is described as follows: ELISA; antibody coated in serial dilutions, human C1q at 5 µg/ml, anti-C1q-HRP. On the procedure: Plates were blocked with IX PBS (pH 7.4) with 2% w/v BSA. After blocking, purified human C1q (HyCult Biotech, Wayne, Pennsylvania) at 5 μg/ml was added to the ELISA plates for binding, Plates were washed an anti-C1q-HRP (Abcam, Cambridge, UK) was diluted 1:1000 in blocking buffer and added to the ELISA plates for detection. After washing, TMB microwell peroxidase substrate (Life Technologies) was added for detection. The reaction was stopped with TMB stop solution (VWR, Lutterworth, Leicestershire) after 5 minutes. Absorbance was read at 450 nm using a SpectraMax M3 plate reader (Molecular Devices, Wokingham, UK).
(In general: An ELISA detects its analyte on a solid surface through an enzyme-linked reagent.)

Experiment [11] has as its target T1, hFcγRIIIA176V. The experiment is described as follows: SPR (Biacore T200), single-cycle kinetics; His-tagged FcγR captured, antibody as analyte; replicate 1.
Text: as §1, §2

In experiment [12] the target is T2, hFcγRIIA167R. The experiment is described as above.
Text: as §1, §2

Experiment [13] has as its target T1, hFcγRIIIA176V. Kind of experiment: SPR (Biacore T200), single-cycle kinetics; His-tagged FcγR captured, antibody as analyte; replicate 2.
Text: as §1, §2

In experiment [14] the target is T2, hFcγRIIA167R. The description is as above.
Text: as §1, §2

For experiment [15], the target named is T10, human TREM2-ECD fused to an Fc domain (human, UniProt Q9NZC2 19-174).
T10 construct: extracellular domain; the text tells one result for TREM2-ECD, so they are written as one molecule; also called human TREM2-ECD (BioLegend, 786404 and R&D Systems, 1828-T2-050); not shown: Fc domain
T10 sequence (looked up): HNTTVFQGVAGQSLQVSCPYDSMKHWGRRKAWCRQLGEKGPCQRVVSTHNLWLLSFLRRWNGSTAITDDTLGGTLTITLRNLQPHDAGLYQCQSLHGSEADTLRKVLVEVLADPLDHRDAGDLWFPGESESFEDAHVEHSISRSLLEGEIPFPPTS
The experiment is described as follows: bio-layer interferometry, TREM2-ECD-Fc immobilised on the sensor, antibody in solution, maximum response. On the procedure: In addition to TREM1, the TREM gene family also includes TREM2. […] Without wishing to be bound by any particular theory, TREM1 and TREM2 are thought to play opposing roles in modulating immune responses; see e.g., Sharif and Knapp, Immunobiology, 213(9-10):701-713 (2008). […] Briefly, 10 μg/mL TREM2-ECD fused to an Fc domain was immobilized on a sensor. Sensors were quenched and monitored to establish a baseline. […] The maximum BLI response was measured (FIG. 13).

Experiment [16] addresses T11, recombinant hTREM1-chFc1 (human).
T11 construct: the whole entry is named; Captured on Octet AHC biosensors; also called immobilized TREM1-ECD; immobilized TREM1 protein
The experiment is described as follows: BLI competition; hTREM1-chFc1 on AHC biosensor, antibody titrated 200 to 0.012 nM for 300 s, then 971 nM PGLYRP1 (competitor: PGLYRP1). How it is done:
(§5) The data was fitted with the sigmoidal (four-parameter) nonlinear regression equation. […] The data is from a single experiment that is representative of three replicates.
(§6) Briefly, recombinant hTREM1-chFc1 was immobilized on Octet AHC biosensors and then blocked with 100 μg/mL hIgG1-Fc. […] The incubation time between mAb and immobilized TREM1-ECD is limited to 300 s, thus limiting the amount of antibody that can bind to the immobilized TREM1, particularly at the sub-saturation concentrations.

The target in experiment [17] is T12, cynomolgus monkey TREM1 on neutrophils (cynomolgus monkey).
T12 construct: Endogenous receptor on neutrophils of dosed animals (receptor occupancy by flow cytometry); also called free TREM1 receptors on neutrophils (cynomolgus)
T12 chain: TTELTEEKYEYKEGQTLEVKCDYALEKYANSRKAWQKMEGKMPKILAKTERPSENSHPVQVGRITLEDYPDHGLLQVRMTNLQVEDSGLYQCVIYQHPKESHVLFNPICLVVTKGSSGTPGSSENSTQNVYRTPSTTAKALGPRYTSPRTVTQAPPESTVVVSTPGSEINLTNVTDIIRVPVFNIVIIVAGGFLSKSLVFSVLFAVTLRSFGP
The experiment is described as follows: flow cytometry of whole blood, free TREM1 on neutrophils (percent of baseline) in cynomolgus monkeys dosed IV once weekly for 14 weeks.

For experiment [18], the target named is T11, recombinant hTREM1-chFc1. Kind of experiment: bio-layer interferometry blocking assay: hTREM1-chFc1 on AHC biosensors, antibody titrated, then PGLYRP1 (blocked ligand, 971 nM per paragraph 383). On the procedure: as §5, §6

T1 sequence (P08637 17-208 F176V): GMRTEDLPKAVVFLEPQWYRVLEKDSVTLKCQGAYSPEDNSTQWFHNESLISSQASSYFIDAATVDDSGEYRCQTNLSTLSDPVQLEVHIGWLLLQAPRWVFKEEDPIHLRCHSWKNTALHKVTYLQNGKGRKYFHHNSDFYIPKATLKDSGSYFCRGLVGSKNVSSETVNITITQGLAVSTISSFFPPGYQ
T11 sequence (Q9NP99 21-205): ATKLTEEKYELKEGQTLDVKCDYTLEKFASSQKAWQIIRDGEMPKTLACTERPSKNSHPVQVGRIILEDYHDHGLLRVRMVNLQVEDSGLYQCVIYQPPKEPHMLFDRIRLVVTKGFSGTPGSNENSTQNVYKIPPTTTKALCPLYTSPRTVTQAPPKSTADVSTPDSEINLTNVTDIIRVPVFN
T9 sequence (P02745 23-245 limits assumed, chain 1 of 3): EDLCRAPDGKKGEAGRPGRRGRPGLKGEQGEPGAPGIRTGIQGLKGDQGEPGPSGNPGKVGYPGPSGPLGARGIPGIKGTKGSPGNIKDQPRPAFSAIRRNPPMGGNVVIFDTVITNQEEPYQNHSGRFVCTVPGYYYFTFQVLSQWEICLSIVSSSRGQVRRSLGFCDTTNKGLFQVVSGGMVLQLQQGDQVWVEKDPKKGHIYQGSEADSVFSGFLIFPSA
T9 sequence (P02746 28-253 limits assumed, chain 2 of 3): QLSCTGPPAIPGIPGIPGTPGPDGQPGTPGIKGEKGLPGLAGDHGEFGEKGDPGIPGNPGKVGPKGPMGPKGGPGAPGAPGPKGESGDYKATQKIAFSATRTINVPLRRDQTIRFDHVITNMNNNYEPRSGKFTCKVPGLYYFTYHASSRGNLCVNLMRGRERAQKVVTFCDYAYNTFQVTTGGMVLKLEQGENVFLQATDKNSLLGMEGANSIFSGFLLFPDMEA
T9 sequence (P02747 29-245 limits assumed, chain 3 of 3): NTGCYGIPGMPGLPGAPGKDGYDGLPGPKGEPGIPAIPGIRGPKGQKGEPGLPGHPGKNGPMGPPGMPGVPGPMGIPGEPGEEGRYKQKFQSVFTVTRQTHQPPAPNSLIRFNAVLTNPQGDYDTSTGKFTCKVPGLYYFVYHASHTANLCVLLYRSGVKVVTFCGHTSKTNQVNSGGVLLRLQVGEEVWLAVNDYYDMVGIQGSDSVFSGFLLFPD

B1: anti-TREM1 antibody agent clone A (antibody, human IgG1, kappa)
heavy: EVQLVESGGVLVQPGGSLRLSCAASGITFSNSWMSWVRQAPGKGLEWVANIKQDGSEKYYVDSVKGRFTISRDNAKESLFLQMNSLRAEDTAVYYCARGGISTFDIWGQGTMVTVSSASTKGPSVFPLAPSSKSTSGGTAALGCLVKDYFPEPVTVSWNSGALTSGVHTFPAVLQSSGLYSLSSVVTVPSSSLGTQTYICNVNHKPSNTKVDKKVEPKSCDKTHTCPPCPAPPVAGPSVFLFPPKPKDTLMISRTPEVTCVVVDVSHEDPEVKFNWYVDGVEVHNAKTKPREEQYNSTYRVVSVLTVLHQDWLNGKEYKCKVSNKALPAPIEKTISKAKGQPREPQVYTLPPSRDELTKNQVSLTCLVKGFYPSDIAVEWESNGQPENNYKTTPPVLDSDGSFFLYSKLTVDKSRWQQGNVFSCSVMHEALHNHYTQKSLSLSPGK
light: not shown
notes: heavy chain carries the IgG1 constant region with PVAdelG, light chain is kappa; also called anti-TREM1 clone A; Anti-TREM1 Antibody Clone A
As a reminder, the Kd is the constant that tells how readily two partners part at equilibrium. In general, IC50 refers to the concentration that gives 50% inhibition. For B1, the “Ratio (against Trastuzumab; not defined)” value worked out at 0.05 with hFcγRIIIA176V [1], 0.33 in the experiment with hFcγRIIA167R [2], 0.05 in the experiment with hFcγRIIIA176V [3] and 0.33 with hFcγRIIA167R [4]. Besides, the binding result is reported as “no binding (tested: 5 µg/mL)” in experiment [5], “no binding” with purified human C1q, “no binding (tested: 3 ug/mL)” in experiment [15] and “binds” in experiment [17]. In addition, the Kd in experiment [6] was determined as 0.0019 µM; with hFcγRIIIA176V [11] it was 6.66 µM; with hFcγRIIA167R [12], 28.4 µM; in the experiment with hFcγRIIIA176V [13], 6.49 µM; in the experiment with hFcγRIIA167R [14] it was 28.3 µM. In addition, the “Maximum BLI response” value in experiment [6] turned out to be 0.343 nm; in [7], 0.013 nm; in experiment [8] it was 0.006 nm; in experiment [9], 0.005 nm; in experiment [10] it was 0.005 nm. Further, in the experiment with recombinant hTREM1-chFc1 [16], the IC50 is 0.0045 µM. Also, the “IC50 (read off the curve)” value in the experiment with recombinant hTREM1-chFc1 [18] is around 0.005 µM.
